Data as given in article PMC11203719, “Mts1 (S100A4) and Its Peptide Demonstrate Cytotoxic Activity in Complex with Tag7 (PGLYRP1) Peptide” (International Journal of Molecular Sciences, 2024).

B1: Mts1 (S100A4) protein, recombinant human (natural protein)
chain: not shown
modifications: Alexa Fluor 633 label (only in the thermophoresis with Tag7, 17.1, 17.1A and 17.1B)
notes: cDNA subcloned into pQE-30; PDB 3NCF is printed for Mts1 but may be a misprint; also called metastasin 1; full-sized Mts1; source: E. coli M15 (pREP4), pQE-30, purified (HisTrap FF)

Tests used:
[1] = biological target: the molecule itself; experiment: SDS-PAGE and Western blot; eluate of recombinant Mts1 from 17.1-Sepharose resolved by 12% SDS-PAGE and blotted with anti-Mts1; oligomer state read from the band
[2] = biological target: B1; experiment: MST; Mts1 labelled with Alexa Fluor 633 (200 nM), preincubated 20 min in the dark at room temperature with 16 concentrations of Tag7 or peptide; Monolith NT.115, 10% IR laser power; apparent Kd; conditions: both partners purified

Row | Kd [2] | Binder | stoichiometry N [1]
1 |  | B1 | 4
2 | 7.26 nM | HRDVQRT (source: synthetic peptide (Fmoc, HPLC purified)) [peptide 17.1B of Tag7 (PGLYRP1)] | 
3 | 109 nM | RSNYVLKG (source: synthetic peptide (Fmoc, HPLC purified)) [peptide 17.1A of Tag7 (PGLYRP1)] | 
